Target: BLM (Bloom's syndrome helicase), purified recombinant (human, UniProt P54132 1-1417)
Assay: far-Western, overlay or dot blot

Chain of BLM (Bloom's syndrome helicase), purified recombinant (P54132 whole entry): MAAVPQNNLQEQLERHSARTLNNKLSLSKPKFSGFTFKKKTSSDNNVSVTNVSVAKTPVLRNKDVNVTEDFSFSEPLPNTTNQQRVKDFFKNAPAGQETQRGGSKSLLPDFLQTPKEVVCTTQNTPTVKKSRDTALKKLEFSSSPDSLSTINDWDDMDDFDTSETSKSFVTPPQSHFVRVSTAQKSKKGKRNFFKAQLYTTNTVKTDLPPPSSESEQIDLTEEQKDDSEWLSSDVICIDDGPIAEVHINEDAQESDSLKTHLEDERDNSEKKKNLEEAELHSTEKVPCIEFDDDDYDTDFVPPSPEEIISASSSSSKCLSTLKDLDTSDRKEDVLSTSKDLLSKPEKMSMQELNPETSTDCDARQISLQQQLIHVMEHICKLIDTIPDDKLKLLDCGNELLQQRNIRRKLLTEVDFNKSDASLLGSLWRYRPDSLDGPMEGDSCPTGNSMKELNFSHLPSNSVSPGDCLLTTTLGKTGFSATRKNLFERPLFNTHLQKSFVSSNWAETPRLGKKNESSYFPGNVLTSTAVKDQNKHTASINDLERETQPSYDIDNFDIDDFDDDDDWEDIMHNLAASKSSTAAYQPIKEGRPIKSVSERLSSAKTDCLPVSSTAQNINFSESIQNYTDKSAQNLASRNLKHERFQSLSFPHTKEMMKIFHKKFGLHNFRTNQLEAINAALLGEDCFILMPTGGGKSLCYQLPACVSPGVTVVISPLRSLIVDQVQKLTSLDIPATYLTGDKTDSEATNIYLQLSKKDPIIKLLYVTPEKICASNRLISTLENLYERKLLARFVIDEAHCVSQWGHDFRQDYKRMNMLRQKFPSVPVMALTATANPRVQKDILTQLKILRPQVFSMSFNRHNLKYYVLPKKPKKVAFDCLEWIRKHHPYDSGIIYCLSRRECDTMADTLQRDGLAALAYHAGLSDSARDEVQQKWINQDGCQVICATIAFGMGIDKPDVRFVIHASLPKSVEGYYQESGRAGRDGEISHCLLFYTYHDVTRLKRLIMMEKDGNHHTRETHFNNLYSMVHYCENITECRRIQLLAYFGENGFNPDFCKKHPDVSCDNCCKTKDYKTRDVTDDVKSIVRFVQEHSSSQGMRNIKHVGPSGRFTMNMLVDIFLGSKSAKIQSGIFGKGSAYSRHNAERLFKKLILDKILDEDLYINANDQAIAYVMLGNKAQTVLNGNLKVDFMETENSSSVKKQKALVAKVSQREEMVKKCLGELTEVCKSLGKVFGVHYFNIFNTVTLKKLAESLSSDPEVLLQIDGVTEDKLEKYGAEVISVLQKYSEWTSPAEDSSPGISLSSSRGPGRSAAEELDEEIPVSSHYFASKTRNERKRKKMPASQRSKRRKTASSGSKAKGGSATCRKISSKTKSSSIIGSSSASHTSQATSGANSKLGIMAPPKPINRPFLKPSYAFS

Row | binding result | Binder
1 | binds | p12 subunit of the purified four-subunit hPOL δ enzyme (natural protein, human, UniProt Q9HCU8 1-107, looked up) MGRKRLITDSYPVVKRREGPAGHSKGELAPELGEEPQPRDEEEAELELLRQFDLAWQYGPCTGITRLQRWCRAKQMGLEPPPEVWQVLKTHPGDPRFQCSLWHLYPL
2 | binds | 6xHis-p12 protein (p12, smallest subunit of human DNA polymerase δ), purified recombinant (natural protein, UniProt Q9HCU8 1-107, looked up) MGRKRLITDSYPVVKRREGPAGHSKGELAPELGEEPQPRDEEEAELELLRQFDLAWQYGPCTGITRLQRWCRAKQMGLEPPPEVWQVLKTHPGDPRFQCSLWHLYPL
